Experimental data as given in article doi:10.1101/695700.

Legend:
[1] = biological target: complement C3; assay: SPR
[2] = biological target: recombinant HC1 (rHC1), wild type; heavy chain 1 of inter-α-inhibitor (human) (UniProt P19827); assay: SPR
Chain of recombinant HC1 (rHC1), wild type; heavy chain 1 of inter-α-inhibitor (human) (P19827 35-672): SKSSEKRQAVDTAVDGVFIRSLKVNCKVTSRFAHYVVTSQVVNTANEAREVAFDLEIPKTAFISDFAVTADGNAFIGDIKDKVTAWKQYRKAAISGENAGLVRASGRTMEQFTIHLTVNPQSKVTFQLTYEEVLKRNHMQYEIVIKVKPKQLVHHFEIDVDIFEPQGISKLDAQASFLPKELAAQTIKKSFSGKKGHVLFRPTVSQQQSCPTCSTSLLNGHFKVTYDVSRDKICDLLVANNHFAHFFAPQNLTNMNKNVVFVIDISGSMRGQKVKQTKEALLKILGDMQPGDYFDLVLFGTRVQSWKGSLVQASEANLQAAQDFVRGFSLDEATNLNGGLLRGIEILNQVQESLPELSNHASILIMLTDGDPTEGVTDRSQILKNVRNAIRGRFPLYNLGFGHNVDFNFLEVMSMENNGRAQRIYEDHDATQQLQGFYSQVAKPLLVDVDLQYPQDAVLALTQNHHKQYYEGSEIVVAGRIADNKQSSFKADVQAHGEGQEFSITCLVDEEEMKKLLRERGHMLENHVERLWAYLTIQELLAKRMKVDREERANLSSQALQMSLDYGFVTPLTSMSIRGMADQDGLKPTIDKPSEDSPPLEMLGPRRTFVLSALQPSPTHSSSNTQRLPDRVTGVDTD

Substance | Kd [1] [nM] | Kd [2] [nM]
inter-α-inhibitor (IαI) (from UniProt P19827 35-672; P19823 55-702) (complex) | 660 | 
TGFβ3-LAP (small latent complex of TGFβ3) (from UniProt P10600 24-300) |  | 10
TGFβ1-LAP (small latent complex of TGFβ1) (from UniProt P01137 30-278) |  | 10

The remaining substances from weak to strong by Kd [2], led by results:

Kd [1] [nM] | Kd [2] [nM] | Substance
 | 10 | TGFβ2-LAP (small latent complex of TGFβ2) (from UniProt P61812 21-302)
 | 2 | LAP (latency-associated peptide from TGFβ1) (domain or fragment)
